Laboratory results from IntAct's records for PubMed 18552200.

B1: DDB1- and CUL4-associated factor homolog 1 (Arabidopsis thaliana (Mouse-ear cress)), Q9M086 (parent)
chain: MDGQEHAEVPNSMVEDDQSVVAAEAIAELANSTGEPNPEEGEEQSVEDELIAKAQKLMEDITSVANNPNPNILHALSQLLESQESLFLEENGHFSNARGSHNSGKLCILIRENDEFFELISSTFLSENSYSTAVKAASARLLMNCSLTWMYPHVFDDAVTENFKNWVMEEAVKFPGEDSAKKEASDFEMLKTYSTGLLALSLASRGQIVEDVLTSGLSAKLMHYLRVRVLKEPSTSRIHTTETKHVSLKTKEEGRSRVRKIVDTVEGDHVLETDSGREMGQTDVQPDGEFEIDGRDVFNVSGVVDCKIKPGDDNSVRDDPSRHRLNRSKSRGRGRVHEGAPDTEVLLASPRLGRLLVRDRDLSKISDGRNAEDVTVCLGKMKSGIMEIEREDNDECFQGCIIGTKNITDLVKRAVGAAETEARAAHAPDDAAKAAGDAAAELVKTAALEEFKSSGSEEAAVSAATRAAITVIDAAEVSRNPTCVTSDQTTDVSEVSLPDIESLAQLQEKYCIQCLEILGEYVEVLGPVLHEKGVDVCIVLLERTSQLDDRSTVSPLLPDVMKLICALAAHRKFAAMFVERRGILKLLAVPRVSETFYGLSSCLYTIGSLQGIMERVCALPLVVIHQVVKLAIELLDCSQDQARKNSALFFAAAFVFRAILDAFDAQDSLQKLLAILKDAASVRTGANTDRSAPEVMTSSEKQMAFHTCFALRQYFRAHLLLLVDSIRPSRISRGGVPSSMKPNIRAAYKPLDISNEAVDAIFLQLQKDRRLGPTFVKAQWPAVNNFLASSGHVTMLELCQTPPVDRYLHDLLQYAFGVLHIVTSIPDGRKAIAHATLSNNRAGIAVILDAANISNSIVDPEIIQPALNVLINLVCPPPSLSNKPPLAQNHQPVPGQATTRPSTDVAVGTQSTGNAPQTPVAPASSGLVGDRRIFLGAGTGSAGLAAKLEQVYRQAREAVRGNDGIKILLKLLQPRIYVNPPATPDCLRALACRVLLGLARDDTIAQILTKLEVGKSLSELIRDSGGQSSGTDQGRWQAELAQVALELIGIVTNSGHATTLTASDAATPTLRRIERAAIAAATPITYDSKELLLLIHEHLQASGLGDTASALLKEAQLTPLPSSASPSSIAYSTTQEMSTPLAQEQWPSGRANSGFFTSKPKVCAHDEDPNSRSNAALSAKKKHLASSTLEMPTPVAQQQWPSGRANCGFCPSIPKINARDEDPSSRGNAAPSAKKKQLTFSPSFSSQSRKQSFSHDALPQSTQRINCCSNSDPALADTSETAAELVLKNDLDADAQFKTPISFPRKRKLSELRDSSVPGKRIDLGERRNSTFADGSGLQTPASALDANQSGSSRLGQMTPASQLRLPSDPQPSNPERLSLDSLVVQYLKHQHRQCLAPITTLPPVSLLHPHVCPEPKRLLEAPLNMTGRLGTRELQSFYSGVHGNRRDRQFVFSRFKSWRSFRDETALFTCIALLGGTNHIAVGSHAGEIKIFEASSGSMLESVSGHQAPVTLVQPYVSRDTQLLLSSSSSDVQLWDASSITGGPRHSFDGCKAAKFSNSGLQFAALSCEASRKDVLLYDVQTCSPCQKLTDTVTSSRSNPYSLVHFSPCDTLILWNGVLWDRRIPEKVRRFDQFTDYGGGGFHPSRNEVIINSEIWDMRTFKLLRSVPSLDQTAITFNSRGDVIYAMLRRNIEDVMSAVHTRRVKHPLFAAFRTLDAINYSDIATIPVDRCLLDFATEPTDSFLGLITMEDQEDMFSSARMYEIGRRRPTDDDSDPDDDDETEDEDEDDEEEDDLDRILGLAGDNSDSGDDDLSSEDNEDSVSDFDEEADILIDGDFMEELIEGENEDDGNGEDEDDDDDGEMQDFMSSGEEDDYRDNIRSS
partner: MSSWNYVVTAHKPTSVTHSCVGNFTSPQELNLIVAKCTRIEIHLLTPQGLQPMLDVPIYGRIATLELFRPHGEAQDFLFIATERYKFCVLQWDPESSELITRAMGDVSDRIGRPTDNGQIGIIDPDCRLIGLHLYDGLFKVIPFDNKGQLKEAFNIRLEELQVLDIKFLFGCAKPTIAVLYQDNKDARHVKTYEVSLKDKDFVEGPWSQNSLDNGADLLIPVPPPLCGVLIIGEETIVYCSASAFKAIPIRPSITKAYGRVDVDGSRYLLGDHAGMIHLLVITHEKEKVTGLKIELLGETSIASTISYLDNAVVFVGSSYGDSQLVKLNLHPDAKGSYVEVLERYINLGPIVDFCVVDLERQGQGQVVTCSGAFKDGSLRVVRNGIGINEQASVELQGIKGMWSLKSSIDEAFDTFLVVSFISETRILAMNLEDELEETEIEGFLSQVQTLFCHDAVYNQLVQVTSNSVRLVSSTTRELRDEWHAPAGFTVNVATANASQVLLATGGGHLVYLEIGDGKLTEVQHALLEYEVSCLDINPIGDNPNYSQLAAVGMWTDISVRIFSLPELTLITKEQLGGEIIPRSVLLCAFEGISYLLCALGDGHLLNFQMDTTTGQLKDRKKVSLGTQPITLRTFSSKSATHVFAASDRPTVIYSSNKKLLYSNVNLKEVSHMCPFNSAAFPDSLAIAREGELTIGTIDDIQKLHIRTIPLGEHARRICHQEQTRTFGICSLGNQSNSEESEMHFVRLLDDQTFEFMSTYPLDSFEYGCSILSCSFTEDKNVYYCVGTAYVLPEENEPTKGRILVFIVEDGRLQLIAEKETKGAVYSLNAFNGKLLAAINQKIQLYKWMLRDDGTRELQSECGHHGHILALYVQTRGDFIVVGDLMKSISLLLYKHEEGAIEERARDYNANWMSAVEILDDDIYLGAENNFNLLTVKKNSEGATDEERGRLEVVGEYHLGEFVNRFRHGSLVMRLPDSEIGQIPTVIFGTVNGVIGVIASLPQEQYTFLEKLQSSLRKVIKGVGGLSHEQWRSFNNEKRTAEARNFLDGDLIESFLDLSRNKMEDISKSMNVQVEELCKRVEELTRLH

Variants of: B1
Conditions: with ddb1a_arath DDB1A

Effect of a mutation on the interaction, decreasing interaction:
D1622A;R1624A;D1658A;R1660A
D1658A;R1660A
D1622A;R1624A
